# In the nanobody polyreactivity screen of Harvey et al. (2022):
# Assay: yeast display, Sf9 membrane polyspecificity reagent, FACS + sequencing; frameworks hold sequencing errors
# Summary of the method: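 After 36–48 hours of galactose induction, yeast (Saccharomyces cerevisiae BJ5465) displaying a synthetic nanobody library were stained at 4 °C for 1 hour with 10% biotinylated, detergent-solubilized Sf9 membrane reagent. Streptavidin microbeads enriched the stained cells before FACS sorting into low and high (top ~1%) gates on anti-HA and streptavidin fluorescence. Each clone's polyreactivity label reflects its gate of origin.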
row,Sequence,polyreactivity (PSR sort gate)
1,QVQLVESGGGLVQAGGSLRLSCAASGRIFYRNAMGWYRQAPGKERELVAAISSSAGSTYYADSVKGRFTISRDNAKNTVYLQMNSLKPEDTAVYYCAAGSGTFVTRYRYGYWGQGTQVTVSS,high polyreactivity
2,QVQLVESGGGLVQAGGSLRLSCAASGSTFFVANAMGWYRQSPGKERELVAAISPSGGSTYYADSVKGRFTISRDNAKNTVYLQMNSLKPEDTAVYYCATSVRRFTRRYDYWGQGTQVTVSS,high polyreactivity
3,QVQLVESGGGLVQAGGSLRLSCAASGRTIWYNAMGWYRQAPGKERELVAVISSGAITYYADSVKGRFTFSRDNGKNTVYLQMNSLKPEDTAFYYCAARSYLSLIDYWGQGTQVNVSS,high polyreactivity
4,QVQLVESGGGLVQAGGSLRLSCAASGGTFSCYAMGWYRQAPGKERELVAAITRRGGRTYYADSVKGRFTISRDNAKNTVYLQMNSLKPEDTAVYYCNTDYKFDYVGFSTWVVRYDYWGQGTQVTVSS,low polyreactivity
5,QVQLVESGGGLVQAGGSLRLSCAASGRIFGYNTMGWYRQAPGNERELVATITGAGSTNYADSVKGLFTISRDNAKNTVYLQMNSLKPEDTAVYYCAASVRWPRVSQRARYGYYYWGQGTQVTVSS,high polyreactivity
6,QVQLVESGGGLVQAGGSLRLSCAASGGIFGKYAMGWYRQAPGKERELVAAITSSGGSTFYADSVKGRFTNSRDNAKNTVYLQMNSLKPEDTAVYYCAARFSSYVRRYYYWGQGTQVTVSS,high polyreactivity
7,QVQLVESGGGLVQAGGSLRLSCAASGFTFDLYARGWYRQAPGKERELVAAISSSCGSTYYADSVKGRFTISRDNAKNTVYLQMNSLKPEDTAVYDCARRYLYSSRLVTKYGYGMDYWGQGTQVTVSS,high polyreactivity
8,QVQLVESGGGLVQAGGSLRISCAASGSIFASNTMGWYRQARGTERELVAGITKIGSSTYYADSVTGRFTISRDNAKNTVYLKMNSLKPEDTAVYYCNAYGPNIYSSRYDYWGQGTQVTVSS,low polyreactivity
9,QVQVVESGGGLVQAGGSLRLSCAASGSIFSSYAMGWYRQAPGKERELVAAITGSGGSTDYADSVKGRFTISRDNAKNTVYLQMNSLKPEDTAVYYCAARRFWPGNSYYYRYYYWGQGTQVTVSS,low polyreactivity
10,QVQLVESGGGLVQAGGSLRLSCAASGFIFTRNVMGWYRQAPGKEMELVASISKSSGSTYYADSVKGRFTISRDNAKNTVYLQMNSLNPEDTAVYYCATYAKQLSPYYYWGQGIQVTVSS,high polyreactivity
11,QVQLVDSGGGLVQAGGSLRLSCAASGNTFRYYVMGWYRQAPGKERELVAASTSSGGNTYYADSVKGRFTISRDNAKNTVYLQMNSLKPEDTAVYYCAASYDINYYFSDYNYWGQGTQVTVSS,high polyreactivity
12,QVQLVESGGGLVQAGGSLRLSCAASGSIFRVNDMGWYRQAPGKERELVATISRSGAITYYADSVKGRFTISRDNAKNTVNLQMNSLKPEDNAVYYCAADFLSRDWGQGTQVTLSS,low polyreactivity
13,QVQLVESGGGLVQAGGSLRLSCAASGFTFSSYAMGWYRQAPGKERELVAAISGSGDRTRYADSVKGRFTISRDNAKNTVYLQMNSLKPEDTAVYYCAAKSPGSQTAMDYWGQGTQVTVSS,high polyreactivity
14,QVQLVESGGGLVQAGGSLRLSCAASGFIFFLYAMGWYRQAPGKERELVARISGGGDSTSYADSVKGRFTISRDNAKNTVYLQMNSLKPEDTAVYYCAADVWGSGGELGYWGQGTQVTVSS,low polyreactivity
15,QVQLVESVGGLFQAGRSLRLSGAASGTTFVWNAMGWYRPAPGKERELVATITLSTGSTYYADSVKGRFTISRDNAKNSVYLQMNSLKPEDTAVYYGNTEIYVDIISDYGYWGQGTQVTVSS,low polyreactivity
16,QVQLVESGGGLVQAGGSLRLSCAASGRIFQRNAMGWYRQEPRKEREFVAAITKSGGGTYADSVKGRFTISRDNAKNTVYLQMNSLKPEDTAVYFCAADSRGEDYYYWGQGTQVTVSS,high polyreactivity
17,QVQLVESGGGLVQAGGSLRLSCAASGRIFQKYAMGWYRQAPGKESELVAAISSGDSTYADSVKGRFTISRDNAKNTVYLQMNSLIPEDTAVYYCAVDLYDPWWYSYIGEYEYWGQGTQVSVSS,low polyreactivity
18,QVEHVESGGALGQAGGSLRLSCAASGITFAPYAMGWYREAPGKETEFDAGINTGGSKYYADSVKGRFTISRDNAKNTFYVQMNSLKPEDTAVYFCATESYPADQDIPGSDYWGQGTQVTVSS,low polyreactivity
19,QVQLVESGGGLVQAGGSLRLSCAASGFTFHGYAMGWYRQAPGKERELVAAISSSGGRTYYADSVKGRFTISRDNAKNTVYLQMNSLKPEDPEVYYCAAKARGIYVPDGGYWGQGTQVTVSS,high polyreactivity
20,QVQLVESGGGLVQAGGSLRLSCAASGRIFFLYAMGWYRQAPGKERELVAAITWSADGTYYADSVKGRFTISRDNAKNTVYLQMNSLKPEDTAVYYCNADAYTTASSYNWWYYYWGQGTQVTVSS,low polyreactivity
21,QDQLVESGGGLVQAGGSLRLSCAASGSIFPDYVMGWYRQAPGKERELVAAISASGGSTYYADSVKGRFTISRDNEKNTVYLKMNSLKPEDTAVYYCNASPKTYLRRKYDYWGQGTQVTVSS,high polyreactivity
22,QVQLVESGGGLVQAGGSLRLSCAASGSIFGDNAMGWYRQAPGKERELVAAIDSDGSTNYADSVNGRFTISRDNAKNTVYLQMNSLKPEDTAVYYCAASEPYSKPYTYDYWGQGTQVTVSS,low polyreactivity

row,Sequence,polyreactivity (PSR sort gate)
1,QVQLVESGGGLVQAGGSLRLICAASGYILWKAMGWYRQAPGKERELVAAIRFRVGSTSYADSVKGRFTISRDNAKNTVYLQMNSLKPVYTAVYYCTARWWVIRPYQRHDYWGQGTQVTVSS,low polyreactivity
2,QVQLVVSGGGLVQAGGSLRLRCAASGRTIWPYAMGWYRQAPRKESEFDAAITWTVGRTYYADSVKGRFTISRDNAKNTVYLQMNSLKPDDTAVYYCNARSYSQTLFGYPDDYWGQGTQVTVSS,high polyreactivity
3,QVQLVESGGGLVQAGGSLRLSCAASGRTFGFYVMGWYRQAPGKERELVAAITPGGNTNYADSVKGRFTISRDNAKNSVYLQMNRLKPEDTAVYYCAASPGTIASYEGDFWGQGTQVTVSS,low polyreactivity
4,QVQLVESGGGLVQAGGSLRLSCAASGSIFTDNVMGWYRQAPGKERELVAAITYSAASTYYADSVKGRFTISRDNAKNTVYLQMNSLKPEDTAVYYCATEYYIGVNYRGDYWGQGTQVTVSS,low polyreactivity
5,QVQLVESGGGLVQVGGSLRLSCAASGFTFYDYAMGWYRQAPGKERELVAAMSRGGSTYYADSVKGRFTISRDNAKNTVYLQMNSLKPEDTAVYYCNARPTRIYHGMGYWGQGTQVTVSW,low polyreactivity
6,QVQLVESGGGLVQAGGSLRLSCAASGSIFTYYAMGWYRQAPGKERELVAAINSGGRTNYADSVKGRFTISRDNAKNTVYLQMNSLKPEDTAVYYCAKYGVLQYGYWGQGTQVTVSS,low polyreactivity
7,QVHLVESVGGLVQAGGSLRLSCAASGRIFGYYAMGWYRQAPGKERELVAAISTNGGTTYYADSVKGRFTISRDNAKNTVYLQMNSLKPEDTAVYYCAATYTVPGHARYDYWGQGTQVTVSS,low polyreactivity
8,QVQLVESGGGLVQAGGSLRLSCAASGRTFTWYAMGWYRQAPGKERELVAAISFSGGSTYYADSVKGRFTISRDNAKNTVYLQMNSLKPEDTAVYYCARPSGDAWEGPRMDYWGQGTQVTVSS,low polyreactivity
9,QVQLVESGGGLVQAGGSLRLSCAASGSIFVYNAMGWYRQAPGKERELVAAIDTVGSTNYADSVKGRFTISRDNAKNTVYLQMNSLNPEDSAVYYCAVVTPYWSFYEQVIPSNYWGQGTQVSVSS,low polyreactivity
10,QVQLVESGGGLVQAGGSLRLSCAASGSIFEGYAMGWYRQAPGKERELVAAISWSSARTYYADSVKGRFTISRDNAKNTVYLQMNSLKPEDTAVYYCNAVARNNRNSRQRIPYDYWGQGTQVTVSS,high polyreactivity
11,QDQLVESGGGLVQAGGSLRLSCAASGSTFSYYAMGWYRQAPGKERELVAAITWSDGSTYYADSVKGRFTISRDYAKNTVYLQMNSLKPEDTAVYYCNAEISQLDGVTFKYDYWGQGTQVTVSS,low polyreactivity
12,QVQLVESRGGLVQAGGSLRLSCAASGSIFRGYAMGWYRQAPGKERELVAAIRRGVITNYADSVKGRFTISRDNAKNTVYLQMNSLKPEDTAVYYCYAVRRWRTSQFDYWGQGTLVTVSS,low polyreactivity
13,QVQLVESGGGLVQAGGSLRLSCAASGLIFYFYVMGWYRQAPGKERELVAGIDTGSSTNYADSVKGRFTISRDNAKNTVYLQMNSLKPEDTAVYYCAADSVSKYGSDYWGQGTQVTVSS,low polyreactivity
14,QVQLVESGGGLVQAGGSLRLSCAASGFTFNANAMGWYRQAPGKERELVADISLSGGRTYYADSVKGRFTISRDNAKNTVYLQMNSLKPEDTAVYYCAASPDGSFRRFSRVVSGDYWGQGTQVTVSS,high polyreactivity
15,QVQLLESGGGLVQAGGSLRLSCAASGFTFVYYAMGWYRQAPGKERELVAAISSSGGITYYADSVKGRFTISRDNAKNTVYLQMNSMKPEDTAVYYCAARLWYPYYYWGQGTQVTVSS,high polyreactivity
16,QVQLVESGGGLVQAGGSLRLSCAASGFTIDGYAMGWYRQAPGKERELVAAIRRGGRTKYADSVKGRFTISRDNAKNTVYLQMNSLKPEDTAVYYCAADRSRRGHLTHGYWGQGTQVTVSS,high polyreactivity
17,QVQLVESGGGLVQAGGSLRLSCAASGSTFWLYAMGWYRQAPGKERELVAAIRSGDRTNYADSVKGRFTISRDNAKNTVYLQMNSLKPEDTAVYYCAAVAYLNWTPHYYWGQGTQVTVSS,low polyreactivity
18,QVQLVESGGGLLQAGGSLRLSCAASGSNFVAYAMGRYRQAPGKERELVAAITYSGGGTYYADSVKGRCTISRDNAKNTVYLLMNSLKPEDTALYYCNAVGGIYDFDYCGQGTQVTVSS,high polyreactivity
19,QVQLVESGGGLVQAGGSLRLSCAASGYTFAGNAMGWYRQAPGKERELVAAISRSGGRTYYAVSVKGRFTISRDNAKNTVYLQMNSLKPEDTAVYYCAAYFPRTLFEFGYWGQGTQVTVSS,high polyreactivity
20,QVQLVESGGGLVQAGGSLRLSCAASGSIFSAYAMGWYRQAPGKERELVAAISWRTGRTYYADSVKGRFTISRDNAKNTVYLQMNSLKPEDTAVYYCAVVLGVRPYDKHDYWGQGTQVTVSS,high polyreactivity
21,QVQLVESGGGLFQPGGILRLSFAASGSTIIDYAMGWYRQEPWKERELVASITWSGGSTYYADSVKGRFTFSRDNAKNTVYLQINCLKPVDSAVYYCNSDVNVGLEVLIVYEYDYWGQGTQVTVSS,low polyreactivity
